Laboratory results from PMC11225796.
Read-outs that look alike come from different tables or passages of the source.

How the values were obtained:
Experiment in all cases: cross-linking
[1] = molecular target: MBP-Z(6His)
[2] = molecular target: MBP-Z(6His); remark: listed apart in the source
[3] = molecular target: MBP-Z(6Tyr)
[4] = molecular target: MBP-Z(6His); remark: listed apart in the source
[5] = molecular target: MBP-Z(6Tyr); remark: listed apart in the source
[6] = molecular target: MBP-Z(6His); remark: listed apart in the source
[7] = molecular target: MBP-Z(6Tyr); remark: listed apart in the source
[8] = molecular target: MBP-Z(6His); remark: listed apart in the source
[9] = molecular target: MBP-Z(6Tyr); remark: listed apart in the source
[10] = molecular target: MBP-Z(6Tyr); remark: listed apart in the source

Substance	cross-linking efficiency (day 0) [1] [%]	cross-linking efficiency (day 1) [1] [%]	cross-linking efficiency (day 3) [1] [%]	cross-linking efficiency (day 5) [1] [%]	cross-linking efficiency [2] [%]	cross-linking efficiency [3] [%]	cross-linking efficiency [4] [%]	cross-linking efficiency [5] [%]	cross-linking efficiency [6] [%]	cross-linking efficiency [7] [%]	cross-linking efficiency [8] [%]	cross-linking efficiency [9] [%]	cross-linking efficiency [1] [%]	cross-linking efficiency (1 mM Na2SiO3) [1] [%]	cross-linking efficiency (no Na2SiO3) [1] [%]	cross-linking efficiency [10] [%]	cross-linking efficiency (1 mM Na2SiO3) [10] [%]	cross-linking efficiency (no Na2SiO3) [10] [%]
Zspa affibody with FSY at site 36, Afb(36FSY) (designed binder)	60.2	47.7	27.5	17.9	–	–	–	–	–	–	–	–	–	–	–	–	–	–
Zspa affibody with PFY at site 36, Afb(36PFY) (designed binder)	–	–	–	–	21.4	5.3	37.4	26.8	35.3	33.7	21.3	44.5	5	18.8	36.9	27.5	45.7	24.7
